One assay concerns the target T1, human CD3 (Jurkat cells) (human, UniProt P07766).
T1 chain: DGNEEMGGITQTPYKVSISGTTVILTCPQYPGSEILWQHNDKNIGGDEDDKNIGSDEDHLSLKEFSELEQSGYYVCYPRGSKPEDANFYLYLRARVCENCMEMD
Nature of the assay: FACS, Jurkat cells. (In flow cytometry, cells or beads pass a laser one at a time.)

A further assay addresses T2, monkey CD3 E&D protein (cynomolgus monkey, UniProt Q95LI5).
T2 chain 1: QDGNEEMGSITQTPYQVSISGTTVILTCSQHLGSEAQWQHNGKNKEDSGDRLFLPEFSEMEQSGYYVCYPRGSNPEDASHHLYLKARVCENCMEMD
T2 chain 2: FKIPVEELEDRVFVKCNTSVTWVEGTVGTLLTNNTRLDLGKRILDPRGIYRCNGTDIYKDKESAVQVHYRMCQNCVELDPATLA
Nature of the assay: SPR.

In a further assay the target is human GPC3 (HepG2 cells) (human, UniProt P51654). Nature of the assay: FACS, HepG2 cells.
The next assay concerns the target human GPC3 protein (human, UniProt P51654). Nature of the assay: SPR. On the technique in general: SPR reads the build-up and loss of mass on a sensor chip optically.
The next assay concerns the target T3, human CD3 E&D protein (human, UniProt P07766).
T3 chain 1: T1 chain
T3 chain 2: T2 chain 2 with V5I, K15N, V20I, T32S, N33D, N34I, A64T, N74S, L83V
Nature of the assay: SPR.

Experimental findings from patent EP4613767 (dated 2025) are described below.

Where a chain is given by its changes, count along the chain named.

human GPC3 (HepG2 cells), sequence (P51654 25-554): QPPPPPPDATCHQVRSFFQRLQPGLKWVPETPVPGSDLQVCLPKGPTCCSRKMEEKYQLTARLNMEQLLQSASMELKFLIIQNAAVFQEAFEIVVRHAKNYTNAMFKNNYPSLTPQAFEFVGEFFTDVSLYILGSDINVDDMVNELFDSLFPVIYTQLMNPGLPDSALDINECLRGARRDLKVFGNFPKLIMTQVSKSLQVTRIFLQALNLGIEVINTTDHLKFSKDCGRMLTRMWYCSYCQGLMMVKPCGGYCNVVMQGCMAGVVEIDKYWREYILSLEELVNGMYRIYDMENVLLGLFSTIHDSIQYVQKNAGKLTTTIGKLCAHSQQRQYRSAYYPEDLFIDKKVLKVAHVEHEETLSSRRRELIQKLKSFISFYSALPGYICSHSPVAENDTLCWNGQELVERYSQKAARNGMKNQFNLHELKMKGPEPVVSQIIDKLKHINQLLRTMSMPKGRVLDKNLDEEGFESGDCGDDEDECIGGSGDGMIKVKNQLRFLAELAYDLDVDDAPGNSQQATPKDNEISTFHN
human GPC3 protein, sequence (P51654 25-554): as above

B1: G100 (anti-CD3 scFv arm) (antibody, V domains shown)
VH: EVKLVESGGGLVQPGGSLKLSCAASGFTFNTYAMNWVRQAPGKGLEWVARIRSKYNNYATYYADSVKDRFTISRDDAKNTLYLQMNNLRTEDTAVYYCVRHGNFGNSYVSWFAYWGQGTLVTVSS
VL: QAVVTQEPSLTVSPGGTVTLTCRSSTGAVTTSNYANWVQQKPGQAPRGLIGGTNKRAPGTPARFSGSLLGGKAALTLSGAQPEDEAEYYCALWYSNLWVFGGGTKLTVL
As a reminder, the EC50 is the concentration at which the effect is half-maximal. In the assay with human CD3 (Jurkat cells), B1 registered an EC50 of 23.9 nM.

B2: G100 (anti-CD3 scFv arm) (antibody, V domains shown)
VH: B1 VH
VL: B1 VL
modifications: Acro CDD-C52W4
One may read the Kd as the equilibrium constant for the complex coming apart. As for B2, in the assay with monkey CD3 E&D protein, the dissociation constant (Kd) came to 5.66 nM.

B3: G156 (anti-GPC3 VHH arm, two VHH copies, Format 2) (antibody, V domains shown)
VH: QVQLVESGGGVVQPGGSLRLSCAASGRTLTNYVMGWFRQAPGKEREIVAGINWAGSRIGYGDFVKGRFTISRDNSKNTVYLQMNSLRPEDTAVYYCAAKLGKYNYPEYDYRGQGTLVTVSS
VL: B1 VL
In the assay with human GPC3 (HepG2 cells), B3 yielded a concentration giving a half-maximal response (EC50) of 0.16 nM. The Kd in the assay with human GPC3 protein amounted to 5.42 nM.

B4: G100 (anti-CD3 scFv arm) (antibody, V domains shown)
VH: B1 VH
VL: B1 VL
modifications: Acro CDD-H52W1
In turn, B4 had a Kd in the assay with human CD3 E&D protein of 3.49 nM.

B5: G156 (anti-CD3 scFv arm) (antibody, V domains shown)
VH: B1 VH
VL: B1 VL
As to B5, in the assay with human CD3 (Jurkat cells), the midpoint of the response, the EC50, lay at 27.4 nM.

B6: G156 (anti-CD3 scFv arm) (antibody, V domains shown)
VH: B1 VH
VL: B1 VL
modifications: Acro CDD-H52W1
Turning to B6, the dissociation constant (Kd) in the assay with human CD3 E&D protein is 1.3 nM.

B7: G156 (anti-CD3 scFv arm) (antibody, V domains shown)
VH: B1 VH
VL: B1 VL
modifications: Acro CDD-C52W4
With B7, the Kd in the assay with monkey CD3 E&D protein was 2.79 nM.

B8: G100 (anti-GPC3 VHH arm, monovalent, Format 1) (antibody, V domains shown)
VH: B3 VH
VL: B1 VL
The molecule B8 showed a concentration for a half-maximal effect (EC50) in the assay with human GPC3 (HepG2 cells) of 0.42 nM. The molecule further yielded a dissociation constant Kd with human GPC3 protein of 8.36 nM.
